Reference: US20170240632A1, “COMPOSITIONS AND METHODS FOR IDENTIFYING AND TREATING CACHEXIA OR PRE-CACHEXIA” (THE BROAD INSTITUTE INC., priority 2014, published 2017)
Entries after “also recorded” stand apart in the source; their conditions may differ.

B1: HMGB1: high mobility group box 1, RAGE ligand (protein, UniProt P09429 1-215, looked up)
High mobility group protein B1: MGKGDPKKPRGKMSSYAFFVQTCREEHKKKHPDASVNFSEFSKKCSERWKTMSAKEKGKFEDMAKADKARYEREMKTYIPPKGETKKKFKDPNAPKRPPSAFFLFCSEYRPKIKGEHPGLSIGDVAKKLGEMWNNTAADDKQPYEKKAAKLKEKYEKDIAAYRAKGKPDAAKKGVVKAEKSKKKKEEEEDEEDEEDEEEEEDEEDEDEEEDDDDE
B2: S100B: recombinant S100 family protein, RAGE ligand (protein, listed as Homo sapiens)
chain: MSELEKAMVALIDVFHQYSGREGDKHKLKKSELKELINNELSHFLEEIKEQEVVDKVMETLDNDGDGECDFQEFMAFVAMVTTACHEFFEHE
B3: S100A8: recombinant S100 family protein, RAGE ligand (protein, listed as Homo sapiens)
chain: MLTELEKALNSIIDVYHKYSLIKGNFHAVYRDDLKKLLETECPQYIRKKGADVWFKELDINTDGAVNFQEFLILVIKMGVAAHKKSHEESHKE
B4: Calprotectin: homodimers, heterodimers and heterotetramers of S100A8 and S100A9 (protein, UniProt P05109 1-93; P06702 1-114, looked up)
Protein S100-A8: B3 chain
Protein S100-A9: MTCKMSQLERNIETIINTFHQYSVKLGHPDTLNQGEFKELVRKDLQNFLKKENKNEKVIEHIMEDLDTNADKQLSFEEFIMLMARLTWASHEKMHEGDEGPGHHHKPGLGEGTP
B5: S100A9: recombinant S100 family protein, RAGE ligand (protein, listed as Homo sapiens)
chain: B4 Protein S100-A9
B6: S100A7: recombinant S100 family protein, RAGE ligand (protein, listed as Homo sapiens)
chain: MSNTQAERSIIGMIDMFHKYTRRDDKIEKPSLLTMMKENFPNFLSACDKKGTNYLADVFEKKDKNEDKKIDFSEFLSLLGDIATDYHKQSHGAAPCSGGSQ

Test system: Primary human myoblast differentiated into terminal myotubes
Assay: Cachexia induction by recombinant S100/HMGB1 proteins, myosin HC in-cell Western
Format: cell-based
Conditions: recombinant ligands in Hanks Balance Salt Solution applied 1:2 v:v to fresh maintenance media each day for 3 days
Protocol: FIG. 1 is a graph showing the differential cachexia-inducing activity of r-S100 faimily proteins. All rpooteins are tested in HBSS buffer. Myosin HC is measured in an in-cell Western assay.
FIGS. 1-4 illustrate the effect of various proteins of the S100 family, as well as HMGB1, as cachexia inducers when conmpared with cachexia-inducing media. Primary human myoblast were plated and differentiated into terminal myotubes as previously described. Recombinant ligands were prepared at the same dose curve in Hanks Balance Salt Solution (buffer) and applied 1:2 v:v to fresh maintenance media each day for 3 days. Cells were assessed for myosin HC content by in-cell Western staining as previously described.

Molecule | induction of the cachectic phenotype (myosin HC content) | induction of the cachectic phenotype (myosin HC content) (listed as A8) | induction of the cachectic phenotype (myosin HC content) (listed as A9) | induction of the cachectic phenotype (myosin HC content) (listed as S100 A7)
B1 | do not induce precachexia and/or cachexia; also recorded: not cachexogenic in muscle |  |  | 
B2 | little or no activity; also recorded: do not induce precachexia and/or cachexia |  |  | 
B3 | key effector molecules in inducing precachexia and/or cachexia | inducers of the cachectic phenotype |  | 
B4 | key effector molecules in inducing precachexia and/or cachexia |  |  | 
B5 | key effector molecules in inducing precachexia and/or cachexia |  | inducers of the cachectic phenotype | 
B6 | key effector molecules in inducing precachexia and/or cachexia |  |  | inducers of the cachectic phenotype
